Results taken from the supplement of paper PMC9170038.

Tested on: MS2 coat protein
Experiment: apparent KD of MS2 coat protein; designed switch direction (-1 OFF switch, 1 ON switch): -1; higher = weaker reporter binding
Procedure, shortened: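 Stalled E. coli RNA polymerase transcribed designed RNA switches on Illumina chips, which were then titrated with SNAP-549-labelled MS2 coat protein, doubling from 0.7 or 1.5 nM to 3 µM. Steps lasted from 0.8–1.5 h at the lowest concentration to 10–20 min at the highest. The apparent KD is each design's median over clusters of curve-fitted normalised fluorescence.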

[1] = input ligand: microRNA oligo, concentration not stated
[2] = Eterna round: R95, input ligand: microRNA oligo, concentration not stated
[3] = Eterna round: R95, input ligand: FMN 200 uM
[4] = Eterna round: R95, input ligand: none

| Sequence | apparent KD of MS2 coat protein (input ligand: FMN 200 uM) [nM] | apparent KD of MS2 coat protein [1] [nM] | apparent KD of MS2 coat protein (input ligand: none) [nM] | apparent KD of MS2 coat protein [2] [nM] | apparent KD of MS2 coat protein [3] [nM] | apparent KD of MS2 coat protein [4] [nM] |
| --- | --- | --- | --- | --- | --- | --- |
| GCUUGUAGAGGAUAUACGAGGGCCCGAGCGGAUAACACCGCACAUGAGGAUCACCCAUGUAGAAGGCUACCACC [Riquinza] (Eterna round: R96, puzzle: Exclusion 2) | 331 | 19.1 | 27.9 | – | – | – |
| GCUUGUAGAGGAUAUACGAGGGCCCGAGCGGAUAACACCGCACAUGAGGAUCACCCAUGUAGAAGGCUACCACC [Riquinza] (puzzle: Exclusion 2) | – | – | – | 20.8 | – | – |
| GCUUGUGGGCAAGGAUAUCCUACGCUGUUCUGGUUCGUGUCUGUCACAUGAGGAUCACCCAUGUGGGAGAAGGUGCCUUUGGUG [Design 63] (Eterna round: R96, puzzle: Exclusion NG 2) | 13.7 | 12.7 | 16.2 | – | – | – |
| GCUUUUCUUUUCCUUUCUUACAUGAGGAUCACCCAUGUUUCUUGUCGUGCUCGCGUUGCUCGUCUGUCUGUCUGUUG [salish99_TOv1_r3_077(!)] (puzzle: Sensor v3, turn-off variant 1) | – | – | – | 35.1 | 44.4 | 50.8 |
| GGAACGACAGGAUAUACAUGAGGAUCACCCAUGUGAGGAAGAGUAAAGUGUGAAGGAGGUAGAAGGGUCAAGAA [AK-MS2ROC-r4-exclusion3-3] (Eterna round: R97, puzzle: Exclusion 3) | 63.6 | – | 38.8 | – | – | – |
| GGAAGACAUGAGGAUCACCCAUGUAAGGAUAUCGGAGGUAAGGGAGGAAGGAGAUAGGCGAGAAGGUACAGGUG [JR_Exclu1_Sub094] (puzzle: Exclusion 1) | – | – | – | 35.5 | 47.2 | 53 |
| GGAAUACAUGAGGAUCACCCAUGUAAGGAUAUGCUGAAUAACACGGAAUAAUCGUGCAGCAGAAGGUACAAAGG [Mat - Mod of my Eli Mod D45] (puzzle: Exclusion 1) | – | – | – | 86.3 | – | – |
| GGACAACAUGAGGAUCACCCAUGUCAGGAUAUGACGGCGUCGGCGAAAGCGGAGGCGGUCAGAAGGGACGGUAA [AK-MS2ROC-r4-exclusion1-10.1] (Eterna round: R97, puzzle: Exclusion 1) | 115 | – | 51.9 | – | – | – |
| GGACUGAAGCUAGGAUAUCCCGUGUGAUCACGAGGAGAAGGAGCGCACGGGUAGUCAACAUGAGGAUCACCCAUGUACAGUCCA [Laditiqu] (Eterna round: R96, puzzle: Exclusion NG 1) | 50.1 | 15.4 | 20.6 | – | – | – |
| GGAGAGGUAGGAUAUGGACCUUAGAACAUGAGGAUCACCCAUGUAGGACCACAUGAUUUGCGAGAAGGACCAGUCC [AK-MS2ROC-r4-exclusion5-7] (Eterna round: R97, puzzle: Exclusion 5) | 363 | – | 655 | – | – | – |
| GGAGCCUUAGGAUAUACAUGAGGAUCACCCAUGUGAUGUCGAAGCAAGGGUCUCCUAGGUAGAAGGAAGACAAU [Eternabot (L1) Solution 90] (Eterna round: R97, puzzle: Exclusion 3) | 19.4 | – | 17.9 | – | – | – |
| GGAGUUAGAGAGGAUAUGGAGGAGAGGCCAAUUCCAGAAGGUUCAACAUGAGGAUCACCCAUGUAUUUUCCUCA [AK-MS2ROC-r4-exclusion6-2] (Eterna round: R97, puzzle: Exclusion 6) | 25.6 | – | 33.8 | – | – | – |
| GGAUAAAACCGAGGAUAUACGUAUCACUAACGAGUAGAAGGCGGACAUGAGGAUCACCCAUGUGAGUUCUCAAUAAGAAACACG [Prohibition 64 - Jieux - Exclusion NG 1] (Eterna round: R96, puzzle: Exclusion NG 1) | 519 | 85.1 | 174 | – | – | – |
| GGAUAAAACUGAGGAUAUACGUAUCACUAACGAGUAGAAGGCAGACAUGAGGAUCACCCAUGUGAGUUCUCAAUAAGAAACACG [Prohibition 65 - Jieux - Exclusion NG 1] (Eterna round: R96, puzzle: Exclusion NG 1) | 74.9 | 43.5 | 51.2 | – | – | – |
| GGAUAUAAGGAAGGAUAUGAGCGCAACUGACGAUCAGAAGGUCCACAUGAGGAUCACCCAUGUGAUCUAUCAAUAUUAUACAUG [Prohibition 94 - Jieux - Exclusion NG 1] (Eterna round: R96, puzzle: Exclusion NG 1) | 264 | 52.9 | 115 | – | – | – |
| GGAUAUAGGCGAGGAUAUACGCACCACUAACUAGUAGAAGGCGCACAUGAGGAUCACCCAUGUGAUUUCUCAAUAUGAUACACG [Prohibition 71 - Jieux - Exclusion NG 1] (Eterna round: R96, puzzle: Exclusion NG 1) | 218 | 107 | 183 | – | – | – |
| GGAUCGAAUGUGAGGAUAUGCUGGUCCUUGGAUCAGCAGAAGGCACAUGAGGAUCACCCAUGUGAUACCGAUCC [Eli bmx4 4.70] (Eterna round: R97, puzzle: Brourd's mod of Exclusion 4) | 255 | – | 381 | – | – | – |
| GGAUCGAGUGUGAGGAUAUGCUGGUCCUUGGAUCAGCAGAAGGCACAUGAGGAUCACCCAUGUGAAUACGGUCC [JL bmx4 3.15] (puzzle: Brourd's mod of Exclusion 4) | – | – | – | 23.8 | – | – |
| GGAUGAGAGCAGGAUAUCUUAUAAAUGUAUGAAAGAGAAGGGCUCACAUGAGGAUCACCCAUGUGGUCCUAGAU [jl-ex6-4.73 jandersonlee mod] (Eterna round: R97, puzzle: Exclusion 6) | 280 | – | 35.9 | – | – | – |
| GGAUUACAUGAGGAUCACCCAUGUGAGGAUAUCGAUGUCCAGUAAUACGUGCGGGACUCGAGAAGGCACUUGGA [salish99-ex1-70] (Eterna round: R96, puzzle: Exclusion 1) | 432 | 80.7 | 96.3 | – | – | – |
| GGAUUUACUGAGGAUAUUGCAUCACCCGACUGAUAAGAAGGCAGAACAUGAGGAUCACCCAUGUGGGUACUCAA [Bingo-Bango-5] (Eterna round: R97, puzzle: Exclusion 6) | 95 | – | 105 | – | – | – |
| GGAUUUCGAGGAUAUACACGCAAAUAGGUGUAUCCUUUAGCACAUGAGGAUCACCCAUGUAGAAGGCGGGUACU [Eternabot (L1) Solution 19] (Eterna round: R97, puzzle: Exclusion 2) | 136 | – | 150 | – | – | – |
| GGCACACAUGAGGAUCACCCAUGUCAGGAUAUGUGGCGAUCGUCGAUAGACGAUAGCCACAGAAGGGACAGGCC [Mat - Exclusion 1 - Eli Mod - D22] (Eterna round: R97, puzzle: Exclusion 1) | 110 | – | 69.9 | – | – | – |
| GGCACACAUGAGGAUCACCCAUGUGAGGAUAUGGUGCGAUCGUCGAAAGACGAUAGCACUAGAAGGCACAUGCC [Eli x1 4.06] (Eterna round: R97, puzzle: Exclusion 1) | 28.2 | – | 16.1 | – | – | – |
| GGCACACAUGAGGAUCACCCAUGUGAGGAUAUGUGGCGAUCGUCGAAAGACGAUAGCCAUAGAAGGCACAUGCC [Eli x1 4.08] (Eterna round: R97, puzzle: Exclusion 1) | 32.1 | – | 18.1 | – | – | – |
| GGCAGACAUGAGGAUCACCCAUGUCAGGAUAUGCGGCGAAGUACAGUUAGUGCAUUUGGUAGAAGGGACAAGGA [Eternabot (L1) Solution 100] (Eterna round: R97, puzzle: Exclusion 1) | 29.8 | – | 32.5 | – | – | – |
| GGCAUACCACAAGCUUUUUACAUGAGGAUCACCCAUGUGGUUUUUAGUCUUAUCCCGGGCCCGAUAUCGGGCCCGGG [-33.9, -54.7, A 19%] (Eterna round: R97, puzzle: Sensor, turn-off variant 1) | 36.7 | – | 38.3 | – | – | – |
| GGCAUCGGAGGAUAUACUUAUGGUGAUACCCGAAGCUUUCUACUUGAGGAUCACCCAAGUAGAAGGCCGAUGCC [jl-ex2.4.81 ViennaUCT mod] (Eterna round: R97, puzzle: Exclusion 2) | 11.7 | – | 12.6 | – | – | – |
| GGCCCGGGAGGAUAUACAUGAGGAUCACCCAUGUUGAAGUUGAAGAUCUUCGGCUUCGGUAGAAGGCCCGGGCC [-35, -32.8 kcal, 23% A, 3, 0] (Eterna round: R97, puzzle: Exclusion 3) | 18.2 | – | 13.6 | – | – | – |
| GGCCGUAAUAAGGAUAUCACUAGCUUCGGCUAGUGAGAAGGUAUUACAUGAGGAUCACCCAUGUGAUCAGGCCA [E6/3-B1] (Eterna round: R97, puzzle: Exclusion 6) | 726 | – | 170 | – | – | – |
